No end group written: not given here.
Biological target: Polymorphonuclear leukocyte elastase from human sputum (EPC Co.; Funakoshi Yakuhin) (human) (UniProt P08246)

B1: by-product oligomer formed in Example 17 (peptide)
chain: RKPGKCPVTYGQCLMLNPPNFCEMDGQCKRDLKCCMGMCGKSCVSPVKA
modifications: also: oligomer formed during refolding, number of chains and linkages not given here
Binder B1 has an IC50 of 300 nM.

Source: patent US5851983
